PMC11257539 (bioRxiv, 2024)
Non-standard residues stand in square brackets, D forms with d. No end group written: not given here. pS = N[C@@H](COP(=O)(O)O)C(=O)O

Legend:
[1] = target: T1, ESCPE-1 complex (SNX2/SNX6 heterodimer) (human, UniProt O60749;Q9UNH7); experiment: co-sedimentation
T1 sequence 1: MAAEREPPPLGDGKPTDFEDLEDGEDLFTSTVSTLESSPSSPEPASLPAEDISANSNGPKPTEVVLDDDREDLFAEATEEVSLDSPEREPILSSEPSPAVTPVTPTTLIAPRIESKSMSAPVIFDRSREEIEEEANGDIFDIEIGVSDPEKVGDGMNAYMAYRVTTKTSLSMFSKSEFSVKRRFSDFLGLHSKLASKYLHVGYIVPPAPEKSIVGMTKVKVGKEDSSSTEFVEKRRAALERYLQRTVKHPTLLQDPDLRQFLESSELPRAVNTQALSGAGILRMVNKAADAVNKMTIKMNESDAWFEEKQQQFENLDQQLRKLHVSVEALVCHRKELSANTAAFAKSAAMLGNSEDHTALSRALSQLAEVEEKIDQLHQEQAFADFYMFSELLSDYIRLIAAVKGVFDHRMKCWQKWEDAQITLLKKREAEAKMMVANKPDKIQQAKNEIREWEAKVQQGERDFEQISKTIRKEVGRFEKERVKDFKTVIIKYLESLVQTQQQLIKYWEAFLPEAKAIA
T1 sequence 2: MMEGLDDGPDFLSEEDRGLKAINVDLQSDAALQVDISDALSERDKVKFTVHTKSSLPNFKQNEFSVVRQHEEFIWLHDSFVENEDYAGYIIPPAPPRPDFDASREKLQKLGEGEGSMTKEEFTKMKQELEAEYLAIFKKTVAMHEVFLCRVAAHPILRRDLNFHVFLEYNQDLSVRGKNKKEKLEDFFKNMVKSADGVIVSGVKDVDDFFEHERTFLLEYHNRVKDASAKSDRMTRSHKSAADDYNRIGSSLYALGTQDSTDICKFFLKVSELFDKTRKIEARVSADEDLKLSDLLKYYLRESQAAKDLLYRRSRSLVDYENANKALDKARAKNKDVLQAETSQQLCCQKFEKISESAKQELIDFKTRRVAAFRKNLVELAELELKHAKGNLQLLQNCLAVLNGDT

[2] = target: SNX27 full-length (purified, as analyte in BLI and in liposome pelleting) (human, UniProt Q96L92 1-541); experiment: co-sedimentation
[3] = target: SNX27 PDZ domain (purified, BLI analyte and ITC cell) (human, UniProt Q96L92 43-136); experiment: ITC

SNVSYKYSKVNKEEETDENETEWLMEEIQ [CI-MPR cargo motif (residues 2347-2375)]: binds [1].

YTVLHRGHHQELEKLPIHNDPESLESCF [His-tagged PDZbm cargo: C-terminal cytosolic tail of 5-HT4(a)R (residues 360-388)]: binds [2].

In the case of E[pS]LESCF [PDZbm cargo peptide 5-HT4(a)R-pS-5 (EpSLESCF)], the Kd [3] is reported as 1100 nM, the dH [3] is reported as -15.2 kcal/mol and the “stoichiometry N” value [3] is reported as 1.1.
